In patent US7256259 (WISCONSIN ALUMNI RESEARCH FOUNDATION, dated 2007):
Where no end group is shown, it is not given here. [ ]: non-standard residue; d: D form. The star is where a group is joined. Lys(N3) = [N-]=[N+]=NCCCC[C@H](N)C(=O)O; N3 = azido group, [N-]=[N+]=N*; PEG = not defined here

T1: S-protein (UniProt P61823 47-150)
T1 construct: also called purified S-protein; commercial S-protein (Sigma Chemical)
T1 sequence (looked up): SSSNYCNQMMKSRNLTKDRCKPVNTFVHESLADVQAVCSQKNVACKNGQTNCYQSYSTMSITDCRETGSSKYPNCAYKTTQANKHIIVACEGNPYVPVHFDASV

B1: N3-PEG-S15 (peptide)
peptide: {N3-PEG}-KETAAAKFERQHMDS
modifications: reading uncertain
notes: Synthetic S15 (first 15 residues of S-peptide) carrying N3-PEG at its N-terminus; In the assay it was immobilized on a phosphinothioester-derivatized glass slide; also called azido-S15; azido-peptide (main-chain azide)

Biological target: T1, S-protein
Experiment: S-protein incubated on a glass slide with immobilized azido-S15; detected by activity assay and immunostaining
Description: An amine-derivatized glass slide was treated with an excess of PEG having succinimidyl ester termini followed by diphenylphosphinomethanethiol resulting in a surface-bound phosphinothioester, as illustrated in Scheme 2. It is believed that the PEG layer (Mr) 3,400) prevented the non-specific attachment of protein to the glass surface. Serial dilutions of (N_3)Lys1 S15 and (N_3)Lys1 S15 were spotted on this phosphinothioester-derivatized slide. The peptide concentrations were 5.64 µM-56.4 pM for (N_3)Lys1 S15 and 4.38 µM-43.8 pM for (N_3)Lys1 S15. Afterwards, S-protein was spotted on the slide, which was washed with buffer. If S15 was successfully immobilized to the slide through the Staudinger ligation, the S-protein would bind to the immobilized S15 resulting in immobilized RNase S'.
Two types of assays were used to detect the presence of immobilized RNase S'. First, the ribonucleolytic activity of each spot was determined with a fluorogenic substrate. […]
RNase S' attached to the plate was visualized by immunostaining. […] RNase S' was detected by using a Fluorinate SI fluorescence scanner (Molecular Dynamics). (See FIG. 1A) The quantity of immobilized protein was determined with IMAGEQUANT densitometry software (Molecular Dynamics) and a standard curve generated by spotting various concentrations of Alexa Fluor® 488-conjugated secondary antibody.

Binder | binding result
B1 | binds
[Lys(N3)]ETAAAKFERQHMDS (also called azido-S15) [(N3)Lys1 S15] | binds
